T1: human glucose-dependent insulinotropic peptide (gastric inhibitory polypeptide) receptor (human) (UniProt P48546)
T1 sequence (looked up): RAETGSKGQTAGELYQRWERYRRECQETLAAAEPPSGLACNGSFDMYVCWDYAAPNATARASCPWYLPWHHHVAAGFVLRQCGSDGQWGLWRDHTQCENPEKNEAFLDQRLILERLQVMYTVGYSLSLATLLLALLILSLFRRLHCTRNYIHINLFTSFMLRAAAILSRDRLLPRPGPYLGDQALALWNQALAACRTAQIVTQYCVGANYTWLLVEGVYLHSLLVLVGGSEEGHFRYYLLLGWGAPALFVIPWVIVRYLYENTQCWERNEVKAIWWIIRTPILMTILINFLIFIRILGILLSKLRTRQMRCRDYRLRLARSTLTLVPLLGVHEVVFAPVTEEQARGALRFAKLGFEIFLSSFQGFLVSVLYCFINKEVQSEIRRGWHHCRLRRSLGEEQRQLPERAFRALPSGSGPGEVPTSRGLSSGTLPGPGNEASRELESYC

B1: g335 (peptide)
peptide: HSQGTFTSDYSKYLDSK([γGlu-Palmitoyl])RAQDFVQWLVAGG-NH2
modifications: N-terminus assumed
SMILES: CCCCCCCCCCCCCCCC(=O)N[C@@H](CCC(=O)NCCCC[C@H](NC(=O)[C@H](CO)NC(=O)[C@H](CC(=O)O)NC(=O)[C@H](CC(C)C)NC(=O)[C@H](Cc1ccc(O)cc1)NC(=O)[C@H](CCCCN)NC(=O)[C@H](CO)NC(=O)[C@H](Cc1ccc(O)cc1)NC(=O)[C@H](CC(=O)O)NC(=O)[C@H](CO)NC(=O)[C@@H](NC(=O)[C@H](Cc1ccccc1)NC(=O)[C@@H](NC(=O)CNC(=O)[C@H](CCC(N)=O)NC(=O)[C@H](CO)NC(=O)[C@@H](N)Cc1c[nH]cn1)[C@@H](C)O)[C@@H](C)O)C(=O)N[C@@H](CCCNC(=N)N)C(=O)N[C@@H](C)C(=O)N[C@@H](CCC(N)=O)C(=O)N[C@@H](CC(=O)O)C(=O)N[C@@H](Cc1ccccc1)C(=O)N[C@H](C(=O)N[C@@H](CCC(N)=O)C(=O)N[C@@H](Cc1c[nH]c2ccccc12)C(=O)N[C@@H](CC(C)C)C(=O)N[C@H](C(=O)N[C@@H](C)C(=O)NCC(=O)NCC(N)=O)C(C)C)C(C)C)C(=O)O
B2: g678 (peptide)
peptide: HGQGTFTSDYSKYLDSK([γGlu-Palmitoyl])RAEDFVQWLVAGG-NH2
modifications: N-terminus assumed
SMILES: CCCCCCCCCCCCCCCC(=O)N[C@@H](CCC(=O)NCCCC[C@H](NC(=O)[C@H](CO)NC(=O)[C@H](CC(=O)O)NC(=O)[C@H](CC(C)C)NC(=O)[C@H](Cc1ccc(O)cc1)NC(=O)[C@H](CCCCN)NC(=O)[C@H](CO)NC(=O)[C@H](Cc1ccc(O)cc1)NC(=O)[C@H](CC(=O)O)NC(=O)[C@H](CO)NC(=O)[C@@H](NC(=O)[C@H](Cc1ccccc1)NC(=O)[C@@H](NC(=O)CNC(=O)[C@H](CCC(N)=O)NC(=O)CNC(=O)[C@@H](N)Cc1c[nH]cn1)[C@@H](C)O)[C@@H](C)O)C(=O)N[C@@H](CCCNC(=N)N)C(=O)N[C@@H](C)C(=O)N[C@@H](CCC(=O)O)C(=O)N[C@@H](CC(=O)O)C(=O)N[C@@H](Cc1ccccc1)C(=O)N[C@H](C(=O)N[C@@H](CCC(N)=O)C(=O)N[C@@H](Cc1c[nH]c2ccccc12)C(=O)N[C@@H](CC(C)C)C(=O)N[C@H](C(=O)N[C@@H](C)C(=O)NCC(=O)NCC(N)=O)C(C)C)C(C)C)C(=O)O
B3: g702 (peptide)
peptide: HSQGTFTSDYSK([γGlu-Palmitoyl])YLDSERAQDFVQWLVAGG-NH2
modifications: N-terminus assumed
SMILES: CCCCCCCCCCCCCCCC(=O)N[C@@H](CCC(=O)NCCCC[C@H](NC(=O)[C@H](CO)NC(=O)[C@H](Cc1ccc(O)cc1)NC(=O)[C@H](CC(=O)O)NC(=O)[C@H](CO)NC(=O)[C@@H](NC(=O)[C@H](Cc1ccccc1)NC(=O)[C@@H](NC(=O)CNC(=O)[C@H](CCC(N)=O)NC(=O)[C@H](CO)NC(=O)[C@@H](N)Cc1c[nH]cn1)[C@@H](C)O)[C@@H](C)O)C(=O)N[C@@H](Cc1ccc(O)cc1)C(=O)N[C@@H](CC(C)C)C(=O)N[C@@H](CC(=O)O)C(=O)N[C@@H](CO)C(=O)N[C@@H](CCC(=O)O)C(=O)N[C@@H](CCCNC(=N)N)C(=O)N[C@@H](C)C(=O)N[C@@H](CCC(N)=O)C(=O)N[C@@H](CC(=O)O)C(=O)N[C@@H](Cc1ccccc1)C(=O)N[C@H](C(=O)N[C@@H](CCC(N)=O)C(=O)N[C@@H](Cc1c[nH]c2ccccc12)C(=O)N[C@@H](CC(C)C)C(=O)N[C@H](C(=O)N[C@@H](C)C(=O)NCC(=O)NCC(N)=O)C(C)C)C(C)C)C(=O)O
B4: g670 (peptide)
peptide: HSQGTFTSDYSKYK([γGlu-Palmitoyl])DSRSAQDFVQWLVAGG-NH2
modifications: N-terminus assumed
SMILES: CCCCCCCCCCCCCCCC(=O)N[C@@H](CCC(=O)NCCCC[C@H](NC(=O)[C@H](Cc1ccc(O)cc1)NC(=O)[C@H](CCCCN)NC(=O)[C@H](CO)NC(=O)[C@H](Cc1ccc(O)cc1)NC(=O)[C@H](CC(=O)O)NC(=O)[C@H](CO)NC(=O)[C@@H](NC(=O)[C@H](Cc1ccccc1)NC(=O)[C@@H](NC(=O)CNC(=O)[C@H](CCC(N)=O)NC(=O)[C@H](CO)NC(=O)[C@@H](N)Cc1c[nH]cn1)[C@@H](C)O)[C@@H](C)O)C(=O)N[C@@H](CC(=O)O)C(=O)N[C@@H](CO)C(=O)N[C@@H](CCCNC(=N)N)C(=O)N[C@@H](CO)C(=O)N[C@@H](C)C(=O)N[C@@H](CCC(N)=O)C(=O)N[C@@H](CC(=O)O)C(=O)N[C@@H](Cc1ccccc1)C(=O)N[C@H](C(=O)N[C@@H](CCC(N)=O)C(=O)N[C@@H](Cc1c[nH]c2ccccc12)C(=O)N[C@@H](CC(C)C)C(=O)N[C@H](C(=O)N[C@@H](C)C(=O)NCC(=O)NCC(N)=O)C(C)C)C(C)C)C(=O)O
B5: g381 (peptide)
peptide: HSEGTFTSDYSKYLDSK([γGlu-Palmitoyl])RAQDFVQWLVAGG-NH2
modifications: N-terminus assumed
SMILES: CCCCCCCCCCCCCCCC(=O)N[C@@H](CCC(=O)NCCCC[C@H](NC(=O)[C@H](CO)NC(=O)[C@H](CC(=O)O)NC(=O)[C@H](CC(C)C)NC(=O)[C@H](Cc1ccc(O)cc1)NC(=O)[C@H](CCCCN)NC(=O)[C@H](CO)NC(=O)[C@H](Cc1ccc(O)cc1)NC(=O)[C@H](CC(=O)O)NC(=O)[C@H](CO)NC(=O)[C@@H](NC(=O)[C@H](Cc1ccccc1)NC(=O)[C@@H](NC(=O)CNC(=O)[C@H](CCC(=O)O)NC(=O)[C@H](CO)NC(=O)[C@@H](N)Cc1c[nH]cn1)[C@@H](C)O)[C@@H](C)O)C(=O)N[C@@H](CCCNC(=N)N)C(=O)N[C@@H](C)C(=O)N[C@@H](CCC(N)=O)C(=O)N[C@@H](CC(=O)O)C(=O)N[C@@H](Cc1ccccc1)C(=O)N[C@H](C(=O)N[C@@H](CCC(N)=O)C(=O)N[C@@H](Cc1c[nH]c2ccccc12)C(=O)N[C@@H](CC(C)C)C(=O)N[C@H](C(=O)N[C@@H](C)C(=O)NCC(=O)NCC(N)=O)C(C)C)C(C)C)C(=O)O
B6: g384 (peptide)
peptide: HXQGTFTSDYSKYLDSKRAQDFVQWLVAGG
modifications: Aib at 2 (written X); K(gE-palm) at 17; C-terminal amide
B7: g336 (peptide)
peptide: HSQGTFTSDYSKYLDSK([γGlu-γGlu-Palmitoyl])RAQDFVQWLVAGG-NH2
modifications: N-terminus assumed
SMILES: CCCCCCCCCCCCCCCC(=O)N[C@@H](CCC(=O)N[C@@H](CCC(=O)NCCCC[C@H](NC(=O)[C@H](CO)NC(=O)[C@H](CC(=O)O)NC(=O)[C@H](CC(C)C)NC(=O)[C@H](Cc1ccc(O)cc1)NC(=O)[C@H](CCCCN)NC(=O)[C@H](CO)NC(=O)[C@H](Cc1ccc(O)cc1)NC(=O)[C@H](CC(=O)O)NC(=O)[C@H](CO)NC(=O)[C@@H](NC(=O)[C@H](Cc1ccccc1)NC(=O)[C@@H](NC(=O)CNC(=O)[C@H](CCC(N)=O)NC(=O)[C@H](CO)NC(=O)[C@@H](N)Cc1c[nH]cn1)[C@@H](C)O)[C@@H](C)O)C(=O)N[C@@H](CCCNC(=N)N)C(=O)N[C@@H](C)C(=O)N[C@@H](CCC(N)=O)C(=O)N[C@@H](CC(=O)O)C(=O)N[C@@H](Cc1ccccc1)C(=O)N[C@H](C(=O)N[C@@H](CCC(N)=O)C(=O)N[C@@H](Cc1c[nH]c2ccccc12)C(=O)N[C@@H](CC(C)C)C(=O)N[C@H](C(=O)N[C@@H](C)C(=O)NCC(=O)NCC(N)=O)C(C)C)C(C)C)C(=O)O)C(=O)O
B8: g679 (peptide)
peptide: HGQGTFTSDYSKYLDSK([γGlu-Palmitoyl])RAQDFVEWLVAGG-NH2
modifications: N-terminus assumed
SMILES: CCCCCCCCCCCCCCCC(=O)N[C@@H](CCC(=O)NCCCC[C@H](NC(=O)[C@H](CO)NC(=O)[C@H](CC(=O)O)NC(=O)[C@H](CC(C)C)NC(=O)[C@H](Cc1ccc(O)cc1)NC(=O)[C@H](CCCCN)NC(=O)[C@H](CO)NC(=O)[C@H](Cc1ccc(O)cc1)NC(=O)[C@H](CC(=O)O)NC(=O)[C@H](CO)NC(=O)[C@@H](NC(=O)[C@H](Cc1ccccc1)NC(=O)[C@@H](NC(=O)CNC(=O)[C@H](CCC(N)=O)NC(=O)CNC(=O)[C@@H](N)Cc1c[nH]cn1)[C@@H](C)O)[C@@H](C)O)C(=O)N[C@@H](CCCNC(=N)N)C(=O)N[C@@H](C)C(=O)N[C@@H](CCC(N)=O)C(=O)N[C@@H](CC(=O)O)C(=O)N[C@@H](Cc1ccccc1)C(=O)N[C@H](C(=O)N[C@@H](CCC(=O)O)C(=O)N[C@@H](Cc1c[nH]c2ccccc12)C(=O)N[C@@H](CC(C)C)C(=O)N[C@H](C(=O)N[C@@H](C)C(=O)NCC(=O)NCC(N)=O)C(C)C)C(C)C)C(=O)O

Numbered stars: 1 amine (or outer) side, 2 acyl side, 3 side chain; on linkers, the order of the positions; unused ones are H or OH. Side chains are listed from the residue outwards. Ends that are not written are not given here. * marks the point of attachment. γGlu = O=C(O)[C@H](CCC(=O)[*:2])N[*:1]; Palmitoyl = CCCCCCCCCCCCCCCC(=O)*

human GLP-1 receptor, sequence (P43220 24-463): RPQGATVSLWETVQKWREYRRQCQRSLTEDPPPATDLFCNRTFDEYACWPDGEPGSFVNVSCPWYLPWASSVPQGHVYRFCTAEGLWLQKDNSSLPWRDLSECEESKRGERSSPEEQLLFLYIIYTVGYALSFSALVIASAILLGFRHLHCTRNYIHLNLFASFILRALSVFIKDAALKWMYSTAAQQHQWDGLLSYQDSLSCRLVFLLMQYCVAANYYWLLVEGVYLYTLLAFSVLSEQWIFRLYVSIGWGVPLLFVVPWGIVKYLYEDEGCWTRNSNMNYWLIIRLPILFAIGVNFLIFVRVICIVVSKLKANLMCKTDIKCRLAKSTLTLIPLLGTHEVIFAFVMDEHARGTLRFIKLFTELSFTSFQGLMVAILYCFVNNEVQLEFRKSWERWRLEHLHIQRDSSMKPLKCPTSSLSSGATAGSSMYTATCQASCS

One test has as its target human GLP-1 receptor (human, UniProt P43220 24-463). Kind of test: cell-based or functional assay.
On to B1, for which the cAMP EC50 (assay 1) was determined as 73.3 pM.

B2 displayed a cAMP EC50 (assay 1) of 106 pM.

Take B3: the cAMP EC50 (assay 1) is 3350 pM.

B4 registered a cAMP EC50 (assay 1) of 20.3 pM.

In turn, B5 had a cAMP EC50 (assay 1) of 90.8 pM.

As for B6, the cAMP EC50 (assay 1) stood at 27.2 pM.

Consider B7, for which the cAMP EC50 (assay 1) was 36.6 pM.

As for B8, the cAMP EC50 (assay 1) was 135 pM.

For a further test, the target named is T1, human glucose-dependent insulinotropic peptide (gastric inhibitory polypeptide) receptor (human). Put plainly: cell-based or functional assay.
B1: the cAMP EC50 (assay 1) was determined as 582 nM.

As for B2, the cAMP EC50 (assay 1) was 123 nM.

The molecule B4 gave a cAMP EC50 (assay 1) of 14.9 nM.

In turn, B5 displayed a cAMP EC50 (assay 1) of 545 nM.

For the molecule B6, the cAMP EC50 (assay 1) stood at 17 nM.

In turn, B7 showed a cAMP EC50 (assay 1) of 19.6 nM.

B8: the cAMP EC50 (assay 1) is 117 nM.

For another test, the target named is human glucagon receptor (human, UniProt P47871 26-477). Put plainly: cell-based or functional assay.
human glucagon receptor, sequence (P47871 26-477): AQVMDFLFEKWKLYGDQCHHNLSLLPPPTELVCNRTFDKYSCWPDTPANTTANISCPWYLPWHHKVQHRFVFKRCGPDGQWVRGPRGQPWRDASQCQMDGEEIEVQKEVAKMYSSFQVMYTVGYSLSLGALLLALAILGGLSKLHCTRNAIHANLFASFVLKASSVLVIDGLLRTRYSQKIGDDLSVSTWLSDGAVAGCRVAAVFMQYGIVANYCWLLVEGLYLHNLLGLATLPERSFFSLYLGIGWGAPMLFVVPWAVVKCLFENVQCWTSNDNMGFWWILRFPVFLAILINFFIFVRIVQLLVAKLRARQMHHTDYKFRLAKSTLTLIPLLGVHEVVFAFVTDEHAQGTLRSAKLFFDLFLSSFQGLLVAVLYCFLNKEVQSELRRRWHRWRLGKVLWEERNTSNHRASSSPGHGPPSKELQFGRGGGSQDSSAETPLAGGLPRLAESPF
As to B2, the cAMP EC50 (assay 1) is 4520 pM.

Molecule B3 registered a cAMP EC50 (assay 1) of 1490 pM.

Regarding B4, the cAMP EC50 (assay 1) came to 8 pM.

With B5, the cAMP EC50 (assay 1) turned out to be 1930 pM.

B6 gave a cAMP EC50 (assay 1) of 42.9 pM.

The molecule B7 returned a cAMP EC50 (assay 1) of 1.77 pM.

The molecule B8 displayed a cAMP EC50 (assay 1) of 189 pM.

For the origin of these results see patent US20190185537A1 (AstraZeneca / MedImmune, published 2019).
